Data published in patent US20220064286A1 (Genentech, published 2022).

How the values were obtained:
[1] = target: T1, mu TIGIT (target named for 10A7 in the heads of Tables 6 and 7) (mu (mouse), UniProt P86176 29-249, limits assumed); test: FACS, CHO cells expressing TIGIT
T1 construct: Only the column head says mu TIGIT; the text describes no mouse TIGIT cells
T1 sequence (looked up): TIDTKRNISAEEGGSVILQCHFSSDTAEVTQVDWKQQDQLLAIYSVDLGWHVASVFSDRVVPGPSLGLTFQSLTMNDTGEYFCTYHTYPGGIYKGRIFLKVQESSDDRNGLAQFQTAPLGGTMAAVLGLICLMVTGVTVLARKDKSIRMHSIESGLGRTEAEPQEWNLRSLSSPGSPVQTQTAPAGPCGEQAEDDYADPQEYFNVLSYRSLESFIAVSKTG

[2] = target: T1, mu TIGIT (target named for 10A7 in the …); test: FACS, T cell binding (row: Human T cell; column head: mu TIGIT)
Procedure, shortened: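 Activated human peripheral blood T cells were stained with each anti-TIGIT antibody and analysed by flow cytometry. Binding was detected with a FITC-labelled anti-human IgG, gated on CD25+CD4+ and CD25+CD8+ cells (LSR-II or LSR-Fortessa, FlowJo). EC50 values come from these titrations.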

[3] = target: T1, mu TIGIT (target named for 10A7 in the …); test: TR-FRET, TIGIT with ST-CD226 on CHO cells; competitor CD226
mouse TIGIT-His = target: T2, mouse TIGIT-His (mouse, UniProt P86176 29-148, limits assumed); test: Block ELISA Mouse PVR-Fc:TIGIT-His (blocked ligand mouse PVR-Fc)
T2 sequence (looked up): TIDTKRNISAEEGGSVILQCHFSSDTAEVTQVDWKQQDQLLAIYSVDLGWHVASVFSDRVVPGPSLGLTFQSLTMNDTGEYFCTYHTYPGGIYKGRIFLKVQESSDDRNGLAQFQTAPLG
Experimental: (§1) To test for the ability of the clones to block the TIGIT-PVR interaction, a blocking ELISA assay was used. Briefly, recombinant human PVR-Fc fusion protein, cynomolgus monkey PVR-Fc fusion protein, or mouse PVR-Fc fusion protein was coated at 4 μg/ml at 25 μl/well in phosphate-buffered saline (PBS, pH 7.0) onto 384-well Maxisorp microtiter plates (NUNC, Denmark) and incubated overnight at 4° C. The coating solution was then discarded and the plate was blocked using 0.5% bovine serum albumin (BSA) in PBS at 80 μl/well and incubated with gentle agitation for 1 hour. Titration curves of anti-TIGIT and Fab isotype control antibodies were diluted in assay buffer (PBS, 0.5% BSA, 0.05% Tween 20) using 12 serial 2.5-fold dilutions (40000-1.7 ng/mL). […] The plate was then washed 6× with wash buffer and bound human TIGIT-AviFlag-biotin, cyno TIGIT-AviFlag-biotin, or mouse TIGIT-His was detected by adding 25 μl/well of horseradish peroxidase-conjugated streptavidin (1:10000, Amersham, UK) or horseradish peroxidase-conjugated mouse anti-His (1:2500, Qiagen, Germany) diluted in assay buffer. […] Absorbance was read at 450 nm on a […] ASCENT® microtiter plate reader (Thermo Labsystems, Helsinki, Finland). Fit curves were plotted from the resulting optical density values from the ELISA plates and IC50s were calculated using Genedata Screener software (Genedata, Switzerland).

[4] = target: T3, human TIGIT-AviFlag-biotin (human, UniProt Q495A1 22-141, biotin); test: Block ELISA Human PVR-Fc:Bio-TIGIT-AviFlag (blocked ligand human PVR-Fc)
T3 sequence: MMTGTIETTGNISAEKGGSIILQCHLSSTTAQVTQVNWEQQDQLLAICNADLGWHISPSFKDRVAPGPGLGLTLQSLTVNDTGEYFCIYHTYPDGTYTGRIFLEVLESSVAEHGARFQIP
Experimental: as §1

B1: 10A7 (antibody, V domains shown)
VH: EVQLVESGGGLTQPGKSLKLSCEASGFTFSSFTMHWVRQSPGKGLEWVAFIRSGSGIVFYADAVRGRFTISRDNAKNLLFLQMNDLKSEDTAMYYCARRPLGHNTFDSWGQGTLVTVSS
VL: DIVMTQSPSSLAVSPGEKVTMTCKSSQSLYYSGVKENLLAWYQQKPGQSPKLLIYYASIRFTGVPDRFTGSGSGTDYTLTITSVQAEDMGQYFCQQGINNPLTFGDGTKLEIKR
Binder B1 has an EC50 [1] of 0.54 nM, an EC50 [2] of 0.63 nM and an IC50 [3] of 17.6 nM.

B2: 4.1D3.Q1E (antibody, V domains shown)
VH: EVQLQQSGPGLVKPSQTLSLTCAISGDSVSSNSAAWNWIRQSPSRGLEWLGKTYYRFKWYSDYAVSVKGRITINPDTSKNQFSLQLNSVTPEDTAVFYCTRESTTYDLLAGPFDYWGQGTLVTVSS
VL: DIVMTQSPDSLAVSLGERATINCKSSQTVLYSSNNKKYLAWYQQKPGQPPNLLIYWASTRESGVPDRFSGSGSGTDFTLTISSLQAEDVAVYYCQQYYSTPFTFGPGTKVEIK
With B2 the IC50 (mouse TIGIT-His) was > 133 nM and the IC50 [4] was 6.9 nM.
